{"source": "patent US7208171B2", "about": "“Injectable and bioadhesive polymeric hydrogels as well as related methods of enzymatic preparation” (Northwestern University, priority 2002, dated 2007)", "key": {"[1]": {"target": "T1, guinea pig liver transglutaminase (guinea pig, UniProt P08587 2-690)", "T1 sequence (looked up)": "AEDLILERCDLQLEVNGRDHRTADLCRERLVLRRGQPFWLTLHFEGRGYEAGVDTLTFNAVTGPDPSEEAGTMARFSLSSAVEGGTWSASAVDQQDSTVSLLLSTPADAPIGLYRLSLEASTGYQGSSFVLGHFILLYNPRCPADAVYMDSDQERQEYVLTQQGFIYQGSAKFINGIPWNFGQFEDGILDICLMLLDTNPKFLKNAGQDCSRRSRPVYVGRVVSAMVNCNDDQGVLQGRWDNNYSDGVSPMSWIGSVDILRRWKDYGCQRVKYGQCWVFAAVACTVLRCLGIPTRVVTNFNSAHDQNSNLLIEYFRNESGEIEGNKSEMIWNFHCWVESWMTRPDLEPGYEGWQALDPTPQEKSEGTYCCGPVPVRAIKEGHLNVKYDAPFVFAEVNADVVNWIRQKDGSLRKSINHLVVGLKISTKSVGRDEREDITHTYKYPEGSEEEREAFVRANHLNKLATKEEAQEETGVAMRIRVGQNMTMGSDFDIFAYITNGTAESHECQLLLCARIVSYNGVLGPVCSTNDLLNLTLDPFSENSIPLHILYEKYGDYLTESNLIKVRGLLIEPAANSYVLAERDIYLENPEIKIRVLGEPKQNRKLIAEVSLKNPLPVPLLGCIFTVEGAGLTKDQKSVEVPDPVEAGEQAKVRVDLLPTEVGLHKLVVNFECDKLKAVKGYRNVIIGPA", "assay": "cell-based or functional assay"}, "[2]": {"target": "T2, guinea pig liver transglutaminase (UniProt P08587)", "T2 construct": "Transglutaminase from guinea pig liver, Boc-L-Lys(Boc)-OH, and N-Boc-L-DOPA dicyclohexylammonium salt was purchased from Sigma Chemical Company; purchased Sigma Chemical Company (St. Louis, Mo.); host or cells: guinea pig liver (tissue-derived enzyme)", "T2 sequence (P08587 1-690)": "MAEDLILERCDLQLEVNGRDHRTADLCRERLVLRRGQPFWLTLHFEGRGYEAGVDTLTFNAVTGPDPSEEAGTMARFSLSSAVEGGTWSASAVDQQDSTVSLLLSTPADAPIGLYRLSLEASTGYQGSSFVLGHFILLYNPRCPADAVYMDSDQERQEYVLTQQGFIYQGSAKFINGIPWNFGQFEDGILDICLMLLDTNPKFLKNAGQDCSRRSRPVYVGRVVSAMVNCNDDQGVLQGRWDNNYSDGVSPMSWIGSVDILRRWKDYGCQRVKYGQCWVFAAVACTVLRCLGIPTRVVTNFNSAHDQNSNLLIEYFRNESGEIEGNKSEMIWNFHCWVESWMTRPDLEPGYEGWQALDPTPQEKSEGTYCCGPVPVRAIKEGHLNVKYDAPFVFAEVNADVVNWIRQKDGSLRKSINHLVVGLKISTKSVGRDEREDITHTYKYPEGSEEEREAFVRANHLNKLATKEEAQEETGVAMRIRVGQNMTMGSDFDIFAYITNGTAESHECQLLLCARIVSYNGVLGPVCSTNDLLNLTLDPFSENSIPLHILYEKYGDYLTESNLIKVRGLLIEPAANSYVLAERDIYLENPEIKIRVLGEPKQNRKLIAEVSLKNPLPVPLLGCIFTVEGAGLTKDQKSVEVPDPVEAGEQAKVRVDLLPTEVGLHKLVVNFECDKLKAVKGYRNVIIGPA", "assay": "Substrate specificity: TGase-catalysed cross-linking of peptide with dansyl labeled substrate, RP-HPLC", "format": "biochemical", "conditions": "peptide concentration 0.05–50 mM, enzyme 0.05 U/ml, reaction time 30 min", "procedure": "For acyl donor attention was focused on peptides containing two to about 5 contiguous glutaminyl (e.g., Gln residues), whereas for acyl acceptor a variety of residues were placed near or adjacent Lys. The peptides were assayed as TGase substrates by monitoring the rate of cross-linking reaction with a known dansyl labeled substrate. The use of fluorescently labeled compounds and RP-HPLC analysis with the aid of LC-ESI/MS, allowed for identification of products and comparison of the kinetic constants of the candidate peptides. The specificity (kcat/Km, app) values determined under identical experimental conditions reflect the relative specificity of the enzyme toward the substrates; peptides with higher specificities are better substrates for TGase enzyme, indicating the enzyme-catalyzed cross-linking reaction of that peptide will proceed more rapidly.\nSubstrate Specificity. […] All reaction products were characterized by LC-ESI/MS (Table 3) and quantitatively analyzed by RP-HPLC. Kinetic constants (Table 4a–b and FIG. 6) were calculated from two methods: fit of the initial rates versus substrate concentrations to the Michaelis-Menten equation using the SigmaPlot® 2000 program with Enzyme Kinetics Module (SPSS Inc., IL); and graphing of the kinetic data using the direct linear plot. […]"}, "Ac-LKG-NH2": {"target": "T3, Ac-LKG-NH2", "T3 chain": "LKG"}, "DOPA-LKG-NH2": {"target": "T4, DOPA-LKG-NH2", "T4 chain": "XLKG"}, "DOPA-GQQQLG-NH2": {"target": "T5, DOPA-GQQQLG-NH2", "T5 chain": "XGQQQLG"}, "Ac-GQQQLG-NH2": {"target": "T6, Ac-GQQQLG-NH2", "T6 chain": "GQQQLG"}, "NH2-GQLKHLEQQEG-NH2": {"target": "T7, NH2-GQLKHLEQQEG-NH2", "T7 chain": "GQLKHLEQQEG"}, "DOPA-FKG-NH2": {"target": "T8, DOPA-FKG-NH2", "T8 chain": "XFKG"}, "LKG-NH2": {"target": "T9, LKG-NH2", "T9 chain": "LKG"}, "Ac-FKG-NH2": {"target": "T10, Ac-FKG-NH2", "T10 chain": "FKG"}, "Ac-KG-NH2": {"target": "T11, Ac-KG-NH2", "T11 chain": "KG"}, "FKG-NH2": {"target": "T12, FKG-NH2", "T12 chain": "FKG"}}, "note": "Non-standard residues stand in square brackets, D forms with d. No end group written: not given here. Dopa = N[C@@H](Cc1ccc(O)c(O)c1)C(=O)O", "data": [{"molecule": "DOPA-LKG-NH2 (peptide)", "values": [{"measurement": "fold increase in specificity against Ac-KG-NH2", "setting": "[1]", "value": 100, "unit": "fold"}, {"measurement": "fold increase in specificity against Ac-LKG-NH2", "setting": "[1]", "value": 2.4, "unit": "fold"}]}, {"molecule": "DOPA-Lys-Gly-NH2 ([Dopa]-Lys-Gly-NH2; N-terminus assumed; SMILES NCCCC[C@H](NC(=O)[C@@H](N)Cc1ccc(O)c(O)c1)C(=O)NCC(N)=O) [Peptide 4]", "values": [{"measurement": "cross-linking product detection", "setting": "[2]", "value": "No cross-linking product was detected"}]}, {"molecule": "DOPA-FKG-NH2 (peptide)", "values": [{"measurement": "fold increase in specificity against Ac-FKG-NH2", "setting": "[1]", "value": 2.4, "unit": "fold"}, {"measurement": "fold increase in specificity against Ac-KG-NH2", "setting": "[1]", "value": 100, "unit": "fold"}]}, {"molecule": "Leu-Lys-Gly-NH2", "note": "[LKG-NH2]", "values": [{"measurement": "fold increase in specificity against Ac-KG-NH2", "setting": "[1]", "value": "~5", "unit": "fold"}]}, {"molecule": "Phe-Lys-Gly-NH2", "note": "[FKG-NH2]", "values": [{"measurement": "fold increase in specificity against Ac-KG-NH2", "setting": "[1]", "value": "~5", "unit": "fold"}]}, {"molecule": "guinea pig liver transglutaminase (protein) AEDLILERCDLQLEVNGRDHRTADLCRERLVLRRGQPFWLTLHFEGRGYEAGVDTLTFNAVTGPDPSEEAGTMARFSLSSAVEGGTWSASAVDQQDSTVSLLLSTPADAPIGLYRLSLEASTGYQGSSFVLGHFILLYNPRCPADAVYMDSDQERQEYVLTQQGFIYQGSAKFINGIPWNFGQFEDGILDICLMLLDTNPKFLKNAGQDCSRRSRPVYVGRVVSAMVNCNDDQGVLQGRWDNNYSDGVSPMSWIGSVDILRRWKDYGCQRVKYGQCWVFAAVACTVLRCLGIPTRVVTNFNSAHDQNSNLLIEYFRNESGEIEGNKSEMIWNFHCWVESWMTRPDLEPGYEGWQALDPTPQEKSEGTYCCGPVPVRAIKEGHLNVKYDAPFVFAEVNADVVNWIRQKDGSLRKSINHLVVGLKISTKSVGRDEREDITHTYKYPEGSEEEREAFVRANHLNKLATKEEAQEETGVAMRIRVGQNMTMGSDFDIFAYITNGTAESHECQLLLCARIVSYNGVLGPVCSTNDLLNLTLDPFSENSIPLHILYEKYGDYLTESNLIKVRGLLIEPAANSYVLAERDIYLENPEIKIRVLGEPKQNRKLIAEVSLKNPLPVPLLGCIFTVEGAGLTKDQKSVEVPDPVEAGEQAKVRVDLLPTEVGLHKLVVNFECDKLKAVKGYRNVIIGPA", "values": [{"measurement": "Km, app", "setting": "Ac-LKG-NH2", "value": 56, "unit": "µM"}, {"measurement": "Vmax, app", "setting": "Ac-LKG-NH2", "value": 1.5, "unit": "µM/min"}, {"measurement": "kcat", "setting": "Ac-LKG-NH2", "value": 0.45, "unit": "s⁻¹"}, {"measurement": "kcat/Km, app", "setting": "Ac-LKG-NH2", "value": 8030, "unit": "M⁻¹ s⁻¹"}, {"measurement": "Km, app", "setting": "DOPA-LKG-NH2", "value": 19.5, "unit": "µM"}, {"measurement": "Vmax, app", "setting": "DOPA-LKG-NH2", "value": 1.28, "unit": "µM/min"}, {"measurement": "kcat", "setting": "DOPA-LKG-NH2", "value": 0.383, "unit": "s⁻¹"}, {"measurement": "kcat/Km, app", "setting": "DOPA-LKG-NH2", "value": 19600, "unit": "M⁻¹ s⁻¹"}, {"measurement": "Km, app", "setting": "DOPA-GQQQLG-NH2", "value": 367, "unit": "µM"}, {"measurement": "Vmax, app", "setting": "DOPA-GQQQLG-NH2", "value": 7.8, "unit": "mM/min"}, {"measurement": "kcat", "setting": "DOPA-GQQQLG-NH2", "value": 0.293, "unit": "s⁻¹"}, {"measurement": "kcat/Km, app", "setting": "DOPA-GQQQLG-NH2", "value": 798, "unit": "M⁻¹ s⁻¹"}, {"measurement": "substrate properties (acyl donor)", "setting": "DOPA-GQQQLG-NH2", "value": "all three designed Gln peptides exhibiting good substrate properties"}, {"measurement": "Km, app", "setting": "Ac-GQQQLG-NH2", "value": 119, "unit": "µM"}, {"measurement": "Vmax, app", "setting": "Ac-GQQQLG-NH2", "value": 1.8, "unit": "mM/min"}, {"measurement": "kcat", "setting": "Ac-GQQQLG-NH2", "value": 0.0667, "unit": "s⁻¹"}, {"measurement": "kcat/Km, app", "setting": "Ac-GQQQLG-NH2", "value": 568, "unit": "M⁻¹ s⁻¹"}, {"measurement": "substrate properties (acyl donor)", "setting": "Ac-GQQQLG-NH2", "value": "all three designed Gln peptides exhibiting good substrate properties"}, {"measurement": "Km, app", "setting": "NH2-GQLKHLEQQEG-NH2", "value": 593, "unit": "µM"}, {"measurement": "Vmax, app", "setting": "NH2-GQLKHLEQQEG-NH2", "value": 12.5, "unit": "mM/min"}, {"measurement": "kcat", "setting": "NH2-GQLKHLEQQEG-NH2", "value": 0.468, "unit": "s⁻¹"}, {"measurement": "kcat/Km, app", "setting": "NH2-GQLKHLEQQEG-NH2", "value": 788, "unit": "M⁻¹ s⁻¹"}, {"measurement": "substrate properties (acyl donor)", "setting": "NH2-GQLKHLEQQEG-NH2", "value": "all three designed Gln peptides exhibiting good substrate properties"}, {"measurement": "Km, app", "setting": "DOPA-FKG-NH2", "value": 17, "unit": "µM"}, {"measurement": "Vmax, app", "setting": "DOPA-FKG-NH2", "value": 1.25, "unit": "µM/min"}, {"measurement": "kcat", "setting": "DOPA-FKG-NH2", "value": 0.375, "unit": "s⁻¹"}, {"measurement": "kcat/Km, app", "setting": "DOPA-FKG-NH2", "value": 22100, "unit": "M⁻¹ s⁻¹"}, {"measurement": "Km, app", "setting": "LKG-NH2", "value": 609, "unit": "µM"}, {"measurement": "Vmax, app", "setting": "LKG-NH2", "value": 1.64, "unit": "µM/min"}, {"measurement": "kcat", "setting": "LKG-NH2", "value": 0.492, "unit": "s⁻¹"}, {"measurement": "kcat/Km, app", "setting": "LKG-NH2", "value": 807, "unit": "M⁻¹ s⁻¹"}, {"measurement": "Km, app", "setting": "Ac-FKG-NH2", "value": 46.9, "unit": "µM"}, {"measurement": "Vmax, app", "setting": "Ac-FKG-NH2", "value": 1.46, "unit": "µM/min"}, {"measurement": "kcat", "setting": "Ac-FKG-NH2", "value": 0.438, "unit": "s⁻¹"}, {"measurement": "kcat/Km, app", "setting": "Ac-FKG-NH2", "value": 9330, "unit": "M⁻¹ s⁻¹"}, {"measurement": "Km, app", "setting": "Ac-KG-NH2", "value": 872, "unit": "µM"}, {"measurement": "Vmax, app", "setting": "Ac-KG-NH2", "value": 1.02, "unit": "µM/min"}, {"measurement": "kcat", "setting": "Ac-KG-NH2", "value": 0.153, "unit": "s⁻¹"}, {"measurement": "kcat/Km, app", "setting": "Ac-KG-NH2", "value": 177, "unit": "M⁻¹ s⁻¹"}, {"measurement": "Km, app", "setting": "FKG-NH2", "value": 498, "unit": "µM"}, {"measurement": "Vmax, app", "setting": "FKG-NH2", "value": 1.7, "unit": "µM/min"}, {"measurement": "kcat", "setting": "FKG-NH2", "value": 0.51, "unit": "s⁻¹"}, {"measurement": "kcat/Km, app", "setting": "FKG-NH2", "value": 1030, "unit": "M⁻¹ s⁻¹"}]}, {"molecule": "Ac-Leu-Lys-Gly-NH2", "note": "[Ac-LKG-NH2]", "values": [{"measurement": "fold increase in specificity against LKG-NH2", "setting": "[1]", "value": "~10", "unit": "fold"}]}, {"molecule": "Ac-Phe-Lys-Gly-NH2", "note": "[Ac-FKG-NH2]", "values": [{"measurement": "fold increase in specificity against FKG-NH2", "setting": "[1]", "value": "~10", "unit": "fold"}]}]}
